Results on one protein are retold here after article PMC3093129 (Biochemistry, 2011).

The stoichiometry N is a count of units in the complex or per binding partner.

This data set concerns the molecule itself. In words: AUC.

B1: Liprin-β2 coiled-coil mutant C145S (complete coiled-coil construct, residues S100 through E315) (domain or fragment, human)
chain: MEKTRSAASNETYQERLARLEGDKESLILQVSVLTDQVEAQGEKIRDLEVSLEGHQVKLNAAEEMLQQELLSRTSLETQKLDLMTEVSELKLKLVGMEKEQREQEEKQRKAEELLQELRHLKIKVEELENERNQYEWKLKATKAEVAQLQEQVALKDAEIERLHSQLSRTAALHSESHTERDQEIQRLKMGMETLLLANEDKDRRIEELTGLLNQYRKVKE
As to B1, the “stoichiometry N” value is 2.
